# Reference: IntAct's records for PubMed 9436979
# B1: Mothers against decapentaplegic homolog 6 (Homo sapiens), O43541 (parent)
# chain: MFRSKRSGLVRRLWRSRVVPDREEGGSGGGGGGDEDGSLGSRAEPAPRAREGGGCGRSEVRPVAPRRPRDAVGQRGAQGAGRRRRAGGPPRPMSEPGAGAGSSLLDVAEPGGPGWLPESDCETVTCCLFSERDAAGAPRDASDPLAGAALEPAGGGRSREARSRLLLLEQELKTVTYSLLKRLKERSLDTLLEAVESRGGVPGGCVLVPRADLRLGGQPAPPQLLLGRLFRWPDLQHAVELKPLCGCHSFAAAADGPTVCCNPYHFSRLCGPESPPPPYSRLSPRDEYKPLDLSDSTLSYTETEATNSLITAPGEFSDASMSPDATKPSHWCSVAYWEHRTRVGRLYAVYDQAVSIFYDLPQGSGFCLGQLNLEQRSESVRRTRSKIGFGILLSKEPDGVWAYNRGEHPIFVNSPTLDAPGGRALVVRKVPPGYSIKVFDFERSGLQHAPEPDAADGPYDPNSVRISFAKGWGPCYSRQFITSCPCWLEILLNNPR
# Variants of: B1
# Conditions: with smad1_human SMAD1, Q15797
# smad1_human SMAD1, Q15797, sequence (Q15797 whole entry): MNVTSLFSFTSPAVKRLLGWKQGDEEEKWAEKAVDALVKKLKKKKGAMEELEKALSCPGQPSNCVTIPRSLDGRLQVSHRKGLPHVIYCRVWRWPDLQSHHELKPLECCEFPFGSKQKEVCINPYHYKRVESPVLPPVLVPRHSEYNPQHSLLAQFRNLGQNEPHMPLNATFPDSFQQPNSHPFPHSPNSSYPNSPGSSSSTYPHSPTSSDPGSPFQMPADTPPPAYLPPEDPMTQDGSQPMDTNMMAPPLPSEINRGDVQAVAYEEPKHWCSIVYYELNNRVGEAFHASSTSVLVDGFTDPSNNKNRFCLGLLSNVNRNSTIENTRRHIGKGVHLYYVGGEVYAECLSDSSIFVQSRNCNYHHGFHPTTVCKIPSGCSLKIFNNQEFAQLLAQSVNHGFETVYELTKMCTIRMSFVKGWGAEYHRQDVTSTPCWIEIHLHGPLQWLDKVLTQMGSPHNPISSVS
row,effect of a mutation on the interaction,Variant
1,disrupting interaction,MFRSKRSGLVRRLWRSRVVPDREEGGSGGGGGGDEDGSLGSRAEPAPRAREGGGCGRSEVRPVAPRRPRDAVGQRGAQGAGRRRRAGGPPRPMSEPGAGAGSSLLDVAEPGGPGWLPESDCETVTCCLFSERDAAGAPRDASDPLAGAALEPAGGGRSREARSRLLLLEQELKTVTYSLLKRLKERSLDTLLEAVESRGGVPGGCVLVPRADLRLGGQPAPPQLLLGRLFRWPDLQHAVELKPLCGCHSFAAAADGPTVCCNPYHFSRLCGPESPPPPYSRLSPRDEYKPLDLSDSTLSYTETEATNSLITAPGEFSDASMSPDATKPSHWCSVAYWEHRTRVGRLYAVYDQAVSIFYDLPQGSGFCLGQLNLEQRSESVRRTRSKIGFGILLSKEPDGVWAYNRGEHPIFVNSPTLDAPGGRALVVRKVPPGYSIKVFDFERSGLQHAPEPDAADGPYDPNSVRISFAKSWGPCYSRQFITSCPCWLEILLNNPR [G471S]
